B1: KLHDC10 (parent)
chain: FGGTGIPFGESNGNGVHVCNVKYK

Variants of: B1
Assay: protein stability index of a GFP-peptide fusion (GPS, HEK-293T) (PSI 1-6); higher = more stable
Conditions: c terminus: a fixed tail appended
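Also: lentivirally expressed fusions sorted by FACS into six bins by GFP to DsRed ratio, PSI derived from sequencing read proportions per bin multiplied by bin number.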

| Variant | protein stability index |
| --- | --- |
| FGGTGIPFGESNGNGVHVLNVKYK | 1.97 |
| FGGTGIPFGESNGNGVHVKNVKYK | 2.08 |
| FGGTGIPFGESNGNGVHVRNVKYK | 2.35 |
| FGGTGIPFGESNGNGVHVGNVKYK | 2.06 |
| FGGTGIPFGESNGNGVHVVNVKYK | 2.07 |
| FGGTGIPFGESNGNGVHVMNVKYK | 2.15 |
| FGGTGIPFGESNGNGVHVTNVKYK | 2.01 |
| FGGTGIPFGESNGNGVHVNNVKYK | 2.38 |
| FGGTGIPFGESNGNGVHVDNVKYK | 2.62 |
| FGGTGIPFGESNGNGVHVSNVKYK | 2.01 |
| FGGTGIPFGESNGNGVHVYNVKYK | 2.06 |
| FGGTGIPFGESNGNGVHVWNVKYK | 1.71 |
| FGGTGIPFGESNGNGVHVPNVKYK | 2.21 |
| FGGTGIPFGESNGNGVHVANVKYK | 2.31 |
| FGGTGIPFGESNGNGVHVFNVKYK | 2.62 |
| FGGTGIPFGESNGNGVHVENVKYK | 2.76 |
| FGGTGIPFGESNGNGVHVINVKYK | 1.75 |
| FGGTGIPFGESNGNGVHVQNVKYK | 2.29 |
| FGGTGIPFGESNGNGVHACNVKYK | 2.1 |
| FGGTGIPFGESNGNGVHICNVKYK | 1.74 |
| FGGTGIPFGESNGNGVHNCNVKYK | 2.31 |
| FGGTGIPFGESNGNGVHGCNVKYK | 2.24 |
| FGGTGIPFGESNGNGVHLCNVKYK | 1.71 |
| FGGTGIPFGESNGNGVHYCNVKYK | 2.19 |

| Variant | protein stability index |
| --- | --- |
| FGGTGIPFGESNGNGVHECNVKYK | 2.75 |
| FGGTGIPFGESNGNGVHCCNVKYK | 2.06 |
| FGGTGIPFGESNGNGVHTCNVKYK | 2.27 |
| FGGTGIPFGESNGNGVHMCNVKYK | 2.24 |
| FGGTGIPFGESNGNGVHWCNVKYK | 1.75 |
| FGGTGIPFGESNGNGVHQCNVKYK | 2.04 |
| FGGTGIPFGESNGNGVHPCNVKYK | 1.97 |
| FGGTGIPFGESNGNGVHRCNVKYK | 2.03 |
| FGGTGIPFGESNGNGVHFCNVKYK | 2.15 |
| FGGTGIPFGESNGNGVHKCNVKYK | 1.86 |
| FGGTGIPFGESNGNGVHDCNVKYK | 3.08 |
| FGGTGIPFGESNGNGVHHCNVKYK | 2.06 |
| FGGTGIPFGESNGNGVHSCNVKYK | 2.45 |
| FGGTGIPFGESNGNGVSVCNVKYK | 3.15 |
| FGGTGIPFGESNGNGVGVCNVKYK | 1.63 |
| FGGTGIPFGESNGNGVEVCNVKYK | 2.48 |
| FGGTGIPFGESNGNGVAVCNVKYK | 1.92 |
| FGGTGIPFGESNGNGVRVCNVKYK | 2.13 |
| FGGTGIPFGESNGNGVYVCNVKYK | 1.52 |
| FGGTGIPFGESNGNGVKVCNVKYK | 2.01 |
| FGGTGIPFGESNGNGVTVCNVKYK | 2.22 |
| FGGTGIPFGESNGNGVWVCNVKYK | 1.64 |
| FGGTGIPFGESNGNGVLVCNVKYK | 2.08 |
| FGGTGIPFGESNGNGVNVCNVKYK | 2.03 |

| Variant | protein stability index |
| --- | --- |
| FGGTGIPFGESNGNGVFVCNVKYK | 2.34 |
| FGGTGIPFGESNGNGVCVCNVKYK | 1.75 |
| FGGTGIPFGESNGNGVVVCNVKYK | 2.32 |
| FGGTGIPFGESNGNGVMVCNVKYK | 1.37 |
| FGGTGIPFGESNGNGVPVCNVKYK | 2.68 |
| FGGTGIPFGESNGNGVDVCNVKYK | 2.54 |
| FGGTGIPFGESNGNGVQVCNVKYK | 2.45 |
| FGGTGIPFGESNGNGVIVCNVKYK | 1.91 |
| FGGTGIPFGESNGNGVHVCNVKIK | 2.38 |
| FGGTGIPFGESNGNGVHVCNVKRK | 2.17 |
| FGGTGIPFGESNGNGVHVCNVKKK | 2.01 |
| FGGTGIPFGESNGNGVHVCNVKMK | 2.1 |
| FGGTGIPFGESNGNGVHVCNVKSK | 2.99 |
| FGGTGIPFGESNGNGVHVCNVKQK | 2.28 |
| FGGTGIPFGESNGNGVHVCNVKDK | 3.3 |
| FGGTGIPFGESNGNGVHVCNVKFK | 2.03 |
| FGGTGIPFGESNGNGVHVCNVKGK | 2.04 |
| FGGTGIPFGESNGNGVHVCNVKPK | 2.41 |
| FGGTGIPFGESNGNGVHVCNVKWK | 2.62 |
| FGGTGIPFGESNGNGVHVCNVKHK | 2.43 |
| FGGTGIPFGESNGNGVHVCNVKEK | 2.47 |
| FGGTGIPFGESNGNGVHVCNVKVK | 2.23 |
| FGGTGIPFGESNGNGVHVCNVKAK | 2.76 |
| FGGTGIPFGESNGNGVHVCNVKLK | 2.07 |

| Variant | protein stability index |
| --- | --- |
| FGGTGIPFGESNGNGVHVCNVKNK | 2.49 |
| FGGTGIPFGESNGNGVHVCNVKTK | 2.14 |
| FGGTGIPFGESNGNGVHVCNVKCK | 2.54 |
| FGGTGIPFGESNGNGVHVCNYKYK | 2.5 |
| FGGTGIPFGESNGNGVHVCNCKYK | 2.04 |
| FGGTGIPFGESNGNGVHVCNQKYK | 2.14 |
| FGGTGIPFGESNGNGVHVCNKKYK | 1.98 |
| FGGTGIPFGESNGNGVHVCNAKYK | 1.74 |
| FGGTGIPFGESNGNGVHVCNGKYK | 1.78 |
| FGGTGIPFGESNGNGVHVCNIKYK | 2.78 |
| FGGTGIPFGESNGNGVHVCNFKYK | 1.82 |
| FGGTGIPFGESNGNGVHVCNHKYK | 1.7 |
| FGGTGIPFGESNGNGVHVCNMKYK | 1.95 |
| FGGTGIPFGESNGNGVHVCNNKYK | 2.54 |
| FGGTGIPFGESNGNGVHVCNDKYK | 2.14 |
| FGGTGIPFGESNGNGVHVCNLKYK | 1.58 |
| FGGTGIPFGESNGNGVHVCNWKYK | 1.86 |
| FGGTGIPFGESNGNGVHVCNSKYK | 2.38 |
| FGGTGIPFGESNGNGVHVCNTKYK | 2.17 |
| FGGTGIPFGESNGNGVHVCNEKYK | 2.31 |
| FGGTGIPFGESNGNGVHVCNRKYK | 1.72 |
| FGGTGIPFGESNGNGVHVCNPKYK | 1.92 |
